# Experimental data published in the supplement of paper PMC10567573.
# B1: KRT33B (parent)
# chain: PAVDLNQVLNETRNQYEALVETNR
# Variants of: B1
# Test: protein stability index of a GFP-peptide fusion (GPS, HEK-293T) (PSI 1-6); higher = more stable
# Conditions: c terminus: a fixed tail appended
# 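Note: lentivirally expressed fusions sorted by FACS into six bins by GFP to DsRed ratio, PSI derived from sequencing read proportions per bin multiplied by bin number.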
row,Variant,protein stability index
1,AAVDLNQVLNETRNQYEALVETNR [P1A],3.25
2,CAVDLNQVLNETRNQYEALVETNR [P1C],2.89
3,DAVDLNQVLNETRNQYEALVETNR [P1D],4.32
4,EAVDLNQVLNETRNQYEALVETNR [P1E],2.98
5,FAVDLNQVLNETRNQYEALVETNR [P1F],2.78
6,GAVDLNQVLNETRNQYEALVETNR [P1G],4.39
7,HAVDLNQVLNETRNQYEALVETNR [P1H],4.02
8,IAVDLNQVLNETRNQYEALVETNR [P1I],2.69
9,KAVDLNQVLNETRNQYEALVETNR [P1K],3.66
10,LAVDLNQVLNETRNQYEALVETNR [P1L],3.46
11,MAVDLNQVLNETRNQYEALVETNR [P1M],3.71
12,NAVDLNQVLNETRNQYEALVETNR [P1N],4.23
13,QAVDLNQVLNETRNQYEALVETNR [P1Q],3.26
14,RAVDLNQVLNETRNQYEALVETNR [P1R],3.7
15,SAVDLNQVLNETRNQYEALVETNR [P1S],4.42
16,TAVDLNQVLNETRNQYEALVETNR [P1T],3.72
17,VAVDLNQVLNETRNQYEALVETNR [P1V],3.15
18,WAVDLNQVLNETRNQYEALVETNR [P1W],3.26
19,YAVDLNQVLNETRNQYEALVETNR [P1Y],3.33
20,PCVDLNQVLNETRNQYEALVETNR [A2C],2.87
21,PDVDLNQVLNETRNQYEALVETNR [A2D],4.82
22,PEVDLNQVLNETRNQYEALVETNR [A2E],2.26
23,PFVDLNQVLNETRNQYEALVETNR [A2F],2.39
24,PGVDLNQVLNETRNQYEALVETNR [A2G],3.95

row,Variant,protein stability index
1,PHVDLNQVLNETRNQYEALVETNR [A2H],3.93
2,PIVDLNQVLNETRNQYEALVETNR [A2I],2.84
3,PKVDLNQVLNETRNQYEALVETNR [A2K],3.87
4,PLVDLNQVLNETRNQYEALVETNR [A2L],3.25
5,PMVDLNQVLNETRNQYEALVETNR [A2M],2.4
6,PNVDLNQVLNETRNQYEALVETNR [A2N],4.4
7,PPVDLNQVLNETRNQYEALVETNR [A2P],3.14
8,PQVDLNQVLNETRNQYEALVETNR [A2Q],3.11
9,PRVDLNQVLNETRNQYEALVETNR [A2R],3.57
10,PSVDLNQVLNETRNQYEALVETNR [A2S],3.23
11,PTVDLNQVLNETRNQYEALVETNR [A2T],3.52
12,PVVDLNQVLNETRNQYEALVETNR [A2V],3.11
13,PWVDLNQVLNETRNQYEALVETNR [A2W],1.59
14,PYVDLNQVLNETRNQYEALVETNR [A2Y],2.02
15,PAADLNQVLNETRNQYEALVETNR [V3A],3.85
16,PACDLNQVLNETRNQYEALVETNR [V3C],2.81
17,PADDLNQVLNETRNQYEALVETNR [V3D],4.77
18,PAEDLNQVLNETRNQYEALVETNR [V3E],4.05
19,PAFDLNQVLNETRNQYEALVETNR [V3F],4.36
20,PAGDLNQVLNETRNQYEALVETNR [V3G],4.65
21,PAHDLNQVLNETRNQYEALVETNR [V3H],4.33
22,PAIDLNQVLNETRNQYEALVETNR [V3I],3.77
23,PAKDLNQVLNETRNQYEALVETNR [V3K],3.83
24,PAMDLNQVLNETRNQYEALVETNR [V3M],2.7

row,Variant,protein stability index
1,PANDLNQVLNETRNQYEALVETNR [V3N],4.25
2,PAPDLNQVLNETRNQYEALVETNR [V3P],4.99
3,PAQDLNQVLNETRNQYEALVETNR [V3Q],3.29
4,PARDLNQVLNETRNQYEALVETNR [V3R],3.4
5,PASDLNQVLNETRNQYEALVETNR [V3S],3.64
6,PATDLNQVLNETRNQYEALVETNR [V3T],3.87
7,PAWDLNQVLNETRNQYEALVETNR [V3W],4.12
8,PAYDLNQVLNETRNQYEALVETNR [V3Y],3.56
9,PAVALNQVLNETRNQYEALVETNR [D4A],3.94
10,PAVCLNQVLNETRNQYEALVETNR [D4C],3.88
11,PAVELNQVLNETRNQYEALVETNR [D4E],3.86
12,PAVFLNQVLNETRNQYEALVETNR [D4F],2.82
13,PAVGLNQVLNETRNQYEALVETNR [D4G],4.02
14,PAVHLNQVLNETRNQYEALVETNR [D4H],4.22
15,PAVILNQVLNETRNQYEALVETNR [D4I],3.41
16,PAVKLNQVLNETRNQYEALVETNR [D4K],4
17,PAVLLNQVLNETRNQYEALVETNR [D4L],3.55
18,PAVMLNQVLNETRNQYEALVETNR [D4M],4.15
19,PAVNLNQVLNETRNQYEALVETNR [D4N],4.46
20,PAVPLNQVLNETRNQYEALVETNR [D4P],3.74
21,PAVQLNQVLNETRNQYEALVETNR [D4Q],4.31
22,PAVRLNQVLNETRNQYEALVETNR [D4R],3.76
23,PAVSLNQVLNETRNQYEALVETNR [D4S],2.74
24,PAVTLNQVLNETRNQYEALVETNR [D4T],3.08

row,Variant,protein stability index
1,PAVVLNQVLNETRNQYEALVETNR [D4V],3.99
2,PAVWLNQVLNETRNQYEALVETNR [D4W],2.64
3,PAVYLNQVLNETRNQYEALVETNR [D4Y],3.44
4,PAVDANQVLNETRNQYEALVETNR [L5A],3.8
5,PAVDCNQVLNETRNQYEALVETNR [L5C],3.97
6,PAVDDNQVLNETRNQYEALVETNR [L5D],4.64
7,PAVDENQVLNETRNQYEALVETNR [L5E],4.53
8,PAVDFNQVLNETRNQYEALVETNR [L5F],3.38
9,PAVDGNQVLNETRNQYEALVETNR [L5G],5.15
10,PAVDHNQVLNETRNQYEALVETNR [L5H],3.83
11,PAVDINQVLNETRNQYEALVETNR [L5I],3.47
12,PAVDKNQVLNETRNQYEALVETNR [L5K],4.79
13,PAVDMNQVLNETRNQYEALVETNR [L5M],4
14,PAVDNNQVLNETRNQYEALVETNR [L5N],5.02
15,PAVDPNQVLNETRNQYEALVETNR [L5P],4.03
16,PAVDQNQVLNETRNQYEALVETNR [L5Q],4.78
17,PAVDRNQVLNETRNQYEALVETNR [L5R],4.4
18,PAVDSNQVLNETRNQYEALVETNR [L5S],4.78
19,PAVDTNQVLNETRNQYEALVETNR [L5T],4.48
20,PAVDVNQVLNETRNQYEALVETNR [L5V],3.02
21,PAVDWNQVLNETRNQYEALVETNR [L5W],2.52
22,PAVDYNQVLNETRNQYEALVETNR [L5Y],3.44
